# T1: recombinant human B7-H3-mFc protein (human) (UniProt Q5ZPR3)
# T1 sequence: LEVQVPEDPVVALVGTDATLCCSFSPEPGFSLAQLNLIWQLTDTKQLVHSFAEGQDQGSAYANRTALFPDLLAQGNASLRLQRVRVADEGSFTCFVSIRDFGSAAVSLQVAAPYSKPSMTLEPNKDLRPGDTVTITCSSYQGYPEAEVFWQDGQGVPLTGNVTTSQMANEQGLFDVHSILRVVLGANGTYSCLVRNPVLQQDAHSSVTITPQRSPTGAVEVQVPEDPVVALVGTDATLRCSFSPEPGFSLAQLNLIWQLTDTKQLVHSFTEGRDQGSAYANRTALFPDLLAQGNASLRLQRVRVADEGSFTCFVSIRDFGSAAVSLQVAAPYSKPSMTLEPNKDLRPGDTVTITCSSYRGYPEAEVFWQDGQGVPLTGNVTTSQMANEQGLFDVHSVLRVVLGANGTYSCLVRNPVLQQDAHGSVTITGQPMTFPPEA
# B1: mAb 91H06 (antibody, V domains shown)
# VH: EVQLVESGGGLVQPGGSLRLSCAASGFTFSDYGMGWVRQAPGKGLEWVSSISWDSSSKEYADSVKGRFTISRDNSKNTLYLQMNSLRAEDTAVYYCARAWIAIIGGGAHFDYWGQGTLVTVSS
# VL: DIQMTQSPSSLSASVGDRVTITCRASQSVSSHLAWYQQKPGKAPKLLIYLTSSLQSGVPSRFSGSGSGTDFTLTISSLQPEDFATYYCMQSKSLPFTFGQGTKVEIKR
# B2: Ifinatamab-biotin (antibody, INN chains, looked up, V domains shown)
# VH: QVQLVQSGAEVKKPGSSVKVSCKASGYTFTNYVMHWVRQAPGQGLEWMGYINPYNDDVKYNEKFKGRVTITADESTSTAYMELSSLRSEDTAVYYCARWGYYGSPLYYFDYWGQGTLVTVSS
# VL: EIVLTQSPATLSLSPGERATLSCRASSRLIYMHWYQQKPGQAPRPLIYATSNLASGIPARFSGSGSGTDFTLTISSLEPEDFAVYYCQQWNSNPPTFGQGTKVEIK
# modifications: biotin
# Legend:
# [1] = target: recombinant cynomolgus monkey B7-H3 protein (cynomolgus monkey); assay: SPR (Biacore), antibody captured on anti-human IgG chip, B7-H3 protein injected
# [2] = target: recombinant cynomolgus monkey B7-H3 protein (cynomolgus monkey); assay: ELISA, plate coated with cynomolgus monkey B7-H3
# [3] = target: T1, recombinant human B7-H3-mFc protein (human); assay: competitive binding ELISA on B7-H3 protein, competitor mAb 91H06
# [4] = target: T1, recombinant human B7-H3-mFc protein (human); assay: competitive binding ELISA on B7-H3 protein, competitor Ifinatamab (4 µg/mL)
# [5] = target: T1, recombinant human B7-H3-mFc protein (human); assay: competitive binding ELISA on B7-H3 protein, no competitor
Binder,Kd [1] [nM],EC50 [2] [nM],EC50 [3] [nM],EC50 [4] [nM],EC50 [5] [nM]
B1,0.471,0.0244,,,
B2,,,0.0346,1.78,0.0331

# — patent publication US20250197501A1
